# Numbering of substitutions follows the chain as printed.
# B1: Antibody 29-2 (antibody, V domains shown)
# VH: QITLKESGPTLVKPTQTLTLTCTFSGFSLSSSGMGVGWIRQPPGKALEWLALIYWNDDKRYSPSLKSRLTITKDTSKNQVVLTLTNMDPVDTATYYCAHTTLYNNCPFDYWGQGTLVTVSS
# VL: SYVLTQPPSVSVAPGKTARITCGGNNIGSYSVHWYQQRPGQAPVLVIYYDSDRPSGIPERFSGSNSGNTATLTISRVEAGDEADYYCQVWDNSSNHPWVFGGGTKLTVL
# B2: Antibody 29-13 (antibody, V domains shown)
# VH: QITLKESGPTLVKPTQTLTLTCTFSGFSLSTSGVGVGWIRQPPGKALEWLALIYWDDDKRYSPSLKSRLSITKDTSKNQVALTVTNMDPVDTATYYCAHRRPGPGSYYFDYWGQGTLVTVSS
# VL: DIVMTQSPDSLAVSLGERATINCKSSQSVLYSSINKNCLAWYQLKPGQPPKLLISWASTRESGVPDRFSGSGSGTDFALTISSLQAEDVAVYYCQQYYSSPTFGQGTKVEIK
# B3: Antibody 8-1 (antibody, V domains shown)
# VH: EVQLVESGGGLIQPGGSLRLSCAASGLTVSSNYMTWVRQAPGKGLEWVSVIYSGGSTFYAESVKGRFTISRDNSKNTLYLQMNSLRAEDTAVYYCARDLVVYGMDVWGQGTTVIVSS
# VL: DIQLTQSPSFLSASVGDRVTITCRASQGISSDLAWYQQKPGKAPKLLIYAASTLQSGVPSRFSGSGSGTEFTLTISSLQPEDFATYYCQQLNSHPLAFGPGTKVDIK
# B4: Antibody 9-1 (antibody, V domains shown)
# VH: QLQLQESGPGLVKPSETLSLTCTVSGGSISSSTYYWAWIRQPPGKGLEWIGSIYYSGSTYYNPSLKSRVTISVHTSKNQFSLKLTSVTAADTAVYYCARSMGLHDYWGQGTLVTVSS
# VL: DIQMTQSPSSLSASVGDRVTITCRASQGIGNSLAWYQQKPGRAPKFLLYAASTLESGVPSRFSGSGSGTHFTLTISSLQPEDFATYFCQQYYSTPPYTFGQGTRLEIK
# B5: Antibody 14-4 (antibody, V domains shown)
# VH: QMQLVQSGPEVKKPGTSVKVSCKASGFTFTTSAVQWVRQARGQRLEWIGWIVVGSGNTNYAQKFQERVTITRDMSTSTGYMELSSLRSEDTAVYYCAAPNCNRTSCDDGFDIWGQGTMVTVSS
# VL: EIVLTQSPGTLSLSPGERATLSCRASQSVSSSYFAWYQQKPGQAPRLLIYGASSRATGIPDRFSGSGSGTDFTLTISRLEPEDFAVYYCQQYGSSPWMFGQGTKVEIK
# B6: Antibody 9-8 (antibody, V domains shown)
# VH: EVQLVESGGGVVQPGGSLRLSCAASGFTFDDYAIHWVRQAPGKGLEWVSLISGDGGTTYYADFVKGRFTISRDNSKNSLYLQMNSLRTEDTALYYCAKDIPVCSSTICYRFTARLHGMDVWGQGTTVTVSS
# VL: DIQMTQSPSSLSASVGDRVTITCRASQSISSYLNWYQQKPGKAPKLLIYTASSLQSGVPSRFSGSGSGADFTLTISSLQPEDFATYYCQQRYSTPLTFGGGTKVEIK
# B7: Antibody 34-2 (antibody, V domains shown)
# VH: EVQLVESGGGLVQPGRSLRLSCAASGFTFDESAMHWVRQAPGEGLEWVSGISWNSGRIAYADSVRGRFTISRDNAKNSLYLQMNSLRAEDTALYFCALTTSGWFSFDYWGQGTLVTVSS
# VL: SYVLTQPPSVSVAPGKTARITCGGNNIGSKSVHWYQQKPGQAPVPVIYYDSDRPSGIPERFSGSNSGNTATLTISRVEVGDEADYYCQVWDSSSDRAVFGGGTTLTVL
# B8: Antibody 8-3 (antibody, V domains shown)
# VH: EVQLVESGGGLVQPGGSLRLSCAASGITVSSNYMNWVRQAPGKGLDWVSVIYSGGSTFYADSVKGRFIISRDNSKNTLFLQMDSLRVEDTAVYYCARDLVVRGVDIWGQGTMVTVSS
# VL: DIQLTQSPSFLSASVGDRVTITCRASQGISSDLAWYHQKPGKAPKLLIYAASTLQSGVPSRFSGSGSGTEFTLTISSLQPEDFATYYCQQLNSYRGLIFGGGTKVEIK
# B9: Antibody 5-10 (antibody, V domains shown)
# VH: EVQLLESGGGLVQPGGSLRLSCAASGFTFSSYAMSWVRQAPGKGLEWVSAIVGSGGSTYYADSVKGRFIISRDNSKNTLYLQMNSLRAEDTAVYYCAKSLIYGHYDILTGAYYFDYWGQGTLVTVSS
# VL: DIQMTQSPSSVSASVGDRVTIPCRASQGIGNWLAWYQQKPGKAPKLLIYAASSLQSGVPSRFSGSGSGTDFTLTISSLQPEDFATYYCQQANSFPPFGQGTRLEIK
# B10: Antibody 12-9 (antibody, V domains shown)
# VH: EVQLVESGGGLVKPGGSLRLSCAASEFTFSSYSMNWVRQAPGKGLEWVSSISSSGSDIYYADSVKGRFTISRDNAKKSLYLQMNSLRVEDTAVYYCATNGGAHSSTWSFYGMDVWGQGTTVTVSS
# VL: SYELTQPPSVSVSPGQTATITCSGDKLGDKYACWYQQRPGQSPVLVIYQDSKRPSGIPERFSGSNSGNTATLTIGGTQAMDEAAYFCQAWDSNTGVFGGGTKLTVL
# B11: Antibody 12-17 (antibody, V domains shown)
# VH: EVQLVESGGGLVKPGGSLRLSCAASGFTLNSYSMNWVRQAPGKGLEWVSSISSTSSDIYYADSVKGRFTISRDNAKNSVDLQMNSLRAEDTAVYYCATNGGAHRNTWSFYGMDVWGQGTTVTVSS
# VL: B10 VL with T19S, C33S, R38K, S51T, A70V, G75S, A84D, F86Y, N93S
# B12: Antibody 12-11 (antibody, V domains shown)
# VH: QVQVVQSGAEVKKPGASVKVSCKVSGYTLIEISIHWVRQAPGKGLEWMGGFDPEAGETIYAQKFQGRVTMTEDTSTDTAYMEVSSLRSEDTAVYYCATGPAIAAAETNWFDLWGQGTLVTVSS
# VL: QSALTQPASVSGSPGQSITISCTGTSSDVGSYNYVSWYQQHPGKAPKLMIYDVTKRPSGVPDRFSGSKSGNTASLTISGLQAEDEADYYCSSYTSSSTWVFGGGTKLTVL
# B13: Antibody 12-13 (antibody, V domains shown)
# VH: QVQVVQSGAEVKKPGASVKVSCKVSGYTLTELSIHWVRQTPGKGLEWMGGFDPEDGETIYAQWLQGRVTMTEDTSTDIAYMELSSLRHEDTAVYYCATGPAIAGAGTNWFDPRGQGTLVIVSS
# VL: B12 VL with S31G, T54S, S91T, S95N
# B14: Antibody 13-17 (antibody, V domains shown)
# VH: QDQLVQSGAEVKKPGASVKVSCKVSGYTLPELSLHWVRQPPGKGLEWMGGFDPEDGETIYAQKFQGRVTMTEDTSTDTAYMELSSLRSEDTAVYYCAASTPMGGHTDWLDPWGQGTLVTVSS
# VL: QSVLTQPPSVSAAPGQKVTISCSGSSSNIGNNYVSWYQQLPGTAPKLLIYDNNKRPSGIPDRFSGSKSGTSATLGITGLQTGDEADYYCGTWDSSLSAGVFGGGTKLTVL
# B15: Antibody 14-8 (antibody, V domains shown)
# VH: QVQLVQSGAEVKKPGASVKVSCKASGYTFTGYYIHWVRQAPGKGPEWMGWINPNSGGTNYAQKFQGWVTMTRDTSISAAYMELSRLKFDDTAIYYCAKSGEKVGADLGYYDYGMDLWGQGTTVTVSS
# VL: SYELTQPPSVSVSPGQTARITCSGDALPKQYAYWYQQKPGQAPVMVIYKDTERPSGIPERFSGSSSGTTVTLTISGVQAEDEADYNCQSVDSSGAYVVFGGGTKLTVL
# Target: T1, SARS-CoV-2 RBD (receptor binding domain of spike protein of SARS-CoV-2) (SARS-CoV-2, UniProt P0DTC2 319-541)
# Experiment: ELISA, SARS-CoV-2 RBD coated on the plate, anti-human IgG-HRP, OD450
row,Binder,EC50
1,B1,0.0372 µg/mL
2,B2,0.00473 µg/mL
3,B3,0.0506 µg/mL
4,B4,0.0886 µg/mL
5,B5,0.0162 µg/mL
6,B6,0.0243 µg/mL
7,B7,0.0493 µg/mL
8,B8,0.0483 µg/mL
9,B9,0.0269 µg/mL

# Target: T1, SARS-CoV-2 RBD (receptor binding domain …)
# Experiment: ELISA, S1-RBD coated on the plate, antibody at one concentration, anti-human IgG-HRP
row,Binder,OD450
1,B10,0.0764
2,B11,0.0641
3,B12,0.0638
4,B13,0.06
5,B14,0.0815
6,B15,0.0693

# Target: T2, SARS-CoV-2 S1 protein NTD (N-terminal domain of spike protein of SARS-CoV-2) (SARS-CoV-2, UniProt P0DTC2 14-305)
# T2 construct: also called S1-NTD; NTD of S1 subunit
# Experiment: biolayer interferometry, ForteBio Octet RED96e, NTD 250 nM to 7.81 nM, 1:1 model
row,Binder,Kd
1,B10,16.7 nM
2,B11,5.49 nM
3,B12,5.82 nM
4,B13,5.61 nM
5,B14,4.39 nM
6,B15,7.08 nM

# Target: T1, SARS-CoV-2 RBD (receptor binding domain …)
# Experiment: not given
row,Binder,Kd
1,B3,0.047 nM

# Target: T1, SARS-CoV-2 RBD (receptor binding domain …)
# Experiment: not given
# Remark: another data set of the same source
row,Binder,Kd
1,B1,0.392 nM
2,B2,1.28 nM
3,B4,0.835 nM
4,B5,2.62 nM
5,B6,4.75 nM
6,B7,0.217 nM
7,B8,1.55 nM
8,B9,4.32 nM

# Target: T1, SARS-CoV-2 RBD (receptor binding domain …)
# Experiment: HTRF ACE2/RBD binding assay, competition with ACE2
row,Binder,IC50
1,B6,4.14 µg/mL

# Target: T1, SARS-CoV-2 RBD (receptor binding domain …)
# Experiment: HTRF ACE2/RBD binding assay (665/620 ratio); blocked ligand: ACE2
row,Binder,IC50
1,B1,0.117 µg/mL
2,B2,0.0954 µg/mL
3,B3,0.103 µg/mL
4,B4,0.105 µg/mL
5,B5,0.103 µg/mL
6,B7,0.115 µg/mL
7,B8,0.109 µg/mL

# Target: T2, SARS-CoV-2 S1 protein NTD (N-terminal …)
# Experiment: ELISA, S1-NTD coated on the plate, antibody at one concentration, anti-human IgG-HRP
row,Binder,OD450
1,B10,3.76
2,B11,3.95
3,B12,3.93
4,B13,3.96
5,B14,3.91
6,B15,3.98

# Target: T3, SARS-CoV-2 S1 (S1 subunit of spike protein of SARS-CoV-2) (SARS-CoV-2, UniProt P0DTC2 14-685)
# T3 construct: domain: S1; also called SARS-CoV-2 Spike protein S1 domain
# Experiment: ELISA, SARS-CoV-2 S1 coated on the plate, anti-human IgG-HRP, OD450
row,Binder,EC50 (read off the curve)
1,B10,~0.03 µg/mL
2,B11,~0.04 µg/mL
3,B12,~0.1 µg/mL
4,B13,~0.07 µg/mL
5,B14,~0.1 µg/mL
6,B15,~0.1 µg/mL

# Reference: patent publication US20240262892A1 (NANJING VAZYME BIOTECH, published 2024)
